One test concerns the target Fc-scOX40L (mouse) (UniProt P43488). In words: non-reducing SDS-PAGE and immunoblot; recombinant OX40L proteins in Laemmli sample buffer, non-heated/non-reducing, SDS-PAGE, immunoblot with anti-PA tag antibody; oligomers judged by molecular weight.
A further test addresses scOX40L-Fc (mouse) (UniProt P43488). Described as above.

As a reminder, the stoichiometry N is a count of units in the complex or per binding partner. “Fc-scOX40L (from UniProt P43488 51-198; P43488 51-198; P43488 51-198) (Fc fusion)”: in the test with Fc-scOX40L (mouse), the stoichiometry N was 2.
For the substance “scOX40L-Fc (from UniProt P43488 51-198; P43488 51-198; P43488 51-198) (Fc fusion)”, the stoichiometry N in the test with scOX40L-Fc (mouse) was 2.

The values above are taken from PMC11757143, “Generation and characterization of OX40-ligand fusion protein that agonizes OX40 on T-Lymphocytes” (Frontiers in Immunology, 2025).
